According to publication PMC9277520:

Key:
Test in all cases: SEC; BV-bound protein on a Superdex 200 10/300 GL column, absorbance at 280, 380 and 630 nm, calibrated with a standard protein mixture; self-association (monomer or tetramer)
[1] = target: wild-type Sandercyanin (SFP) (Stizostedion vitreum (Canadian walleye))
[2] = target: Sandercyanin Y142A variant (Stizostedion vitreum (Canadian walleye))
[3] = target: Sandercyanin H108A variant (Stizostedion vitreum (Canadian walleye))
[4] = target: Sandercyanin F55A variant (Stizostedion vitreum (Canadian walleye))
[5] = target: Sandercyanin F106A variant (Stizostedion vitreum (Canadian walleye))

Substance: wild-type Sandercyanin (SFP) (natural protein)
- stoichiometry N [1]: 4

Substance: Sandercyanin Y142A variant (natural protein)
- stoichiometry N [2]: 4

Substance: Sandercyanin H108A variant (natural protein)
- stoichiometry N [3]: 4

Substance: Sandercyanin F55A variant (natural protein)
- stoichiometry N [4]: 4

Substance: Sandercyanin F106A variant (natural protein)
- stoichiometry N [5]: 4
